Substitutions are numbered along the chain they refer to.
T1: Recombinant human IL-23 (human, UniProt P29460 23-328)
T1 construct: also called hu IL23
T1 sequence 1: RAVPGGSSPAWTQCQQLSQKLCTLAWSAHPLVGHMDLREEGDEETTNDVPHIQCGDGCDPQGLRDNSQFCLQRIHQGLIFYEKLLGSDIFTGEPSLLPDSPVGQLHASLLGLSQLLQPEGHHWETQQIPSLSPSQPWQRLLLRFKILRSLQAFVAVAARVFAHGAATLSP
T1 sequence 2: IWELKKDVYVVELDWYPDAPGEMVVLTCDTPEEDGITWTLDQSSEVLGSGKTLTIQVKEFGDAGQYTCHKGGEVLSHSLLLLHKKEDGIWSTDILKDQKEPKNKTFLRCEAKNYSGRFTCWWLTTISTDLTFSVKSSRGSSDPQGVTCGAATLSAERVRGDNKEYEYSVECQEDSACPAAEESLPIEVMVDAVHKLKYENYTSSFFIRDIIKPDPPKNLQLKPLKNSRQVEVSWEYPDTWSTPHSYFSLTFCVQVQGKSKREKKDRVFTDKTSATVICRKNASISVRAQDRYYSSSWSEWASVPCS

T2: Linked human IL-23 (Boehringer Ingelheim Pharmaceuticals, Inc.) (human, UniProt P29460 23-328)
T2 sequence 1: T1 sequence 1
T2 sequence 2: T1 sequence 2

B1: Compound B (bispecific antibody, human IgG4 S228P, kappa)
chain 1: DIQMTQSPSSLSASVGDRVTITCKASRDVAIAVAWYQQKPGKVPKLLIYWASTRHTGVPSRFSGSGSRTDFTLTISSLQPEDVADYFCHQYSSYPFTFGSGTKLEIKGGGSGGGGQVQLVQSGAEVKKPGASVKVSCKASGYSFSTFFIHWVRQAPGQGLEWIGRIDPNSGATKYNEKFESRVTMTRDTSISTAYMELSRLRSDDTAVYYCARGEDLLIRTDALDYWGQGTSVTVSSLGGGSGASTKGPSVFPLAPCSRSTSESTAALGCLVKDYFPEPVTVSWNSGALTSGVHTFPAVLQSSGLYSLSSVVTVPSSSLGTKTYTCNVDHKPSNTKVDKRVESKYGPPCPPCPAPEFLGGPSVFLFPPKPKDTLYITREPEVTCVVVDVSQEDPEVQFNWYVDGVEVHNAKTKPREEQFNSTYRVVSVLTVLHQDWLNGKEYKCKVSNKGLPSSIEKTISKAKGQPREPQVYTLPPSQEEMTKNQVSLTCLVKGFYPSDIAVEWESNGQPENNYKTTPPVLDSDGSFFLYSRLTVDKSRWQEGNVFSCSVMHEALHNHYTQKSLSLSLG
chain 2: DIQMTQSPSSLSASVGDRVSITCKASQNAGIDVAWFQQKPGKAPKLLIYSKSNRYTGVPSRFSGSGSGTDFTLTISSLQPEDFATYYCLQYRSYPRTFGQGTKLEIKGGGSGGGGQVQLVQSGAEVKKPGSSVKVSCKASGYTFTDQTIHWMRQAPGQGLEWIGYIYPRDDSPKYNENFKGKVTITADKSTSTAYMELSSLRSEDTAVYYCAIPDRSGYAWFIYWGQGTLVTVSSLGGGSGRTVAAPSVFIFPPSDEQLKSGTASVVCLLNNFYPREAKVQWKVDNALQSGNSQESVTEQDSKDSTYSLSSTLTLSKADYEKHKVYACEVTHQGLSSPVTKSFNRGEC
notes: Large chain: IL23A(1) VL - BAFF(7) VH - LGGGSG - IgG4-Pro-YTE constant domain; small chain: BAFF(7) VL - IL23A(1) VH - LGGGSG - CL; Tetravalent format
B2: Compound D (bispecific antibody, human IgG4 S228P, kappa)
chain 1: B1 chain 1 with A155R, R182K, M185L
chain 2: B1 chain 2 with T85D, Q100G
notes: Large chain: IL23A(1) VL - BAFF(6) VH - LGGGSG - IgG4-Pro-YTE; small chain: BAFF(6) VL - IL23A(1) VH - LGGGSG - CL; Tetravalent format
B3: Control Antibody 3 (anti-BAFF monoclonal antibody) (BAFF (3)) (antibody, V domains shown)
VH: QVQLQQWGAGLLKPSETLSLTCAVYGGSFSGYYWSWIRQPPGKGLEWIGEINHSGSTNYNPSLKSRVTISVDTSKNQFSLKLSSVTAADTAVYYCARGYYDILTGYYYYFDYWGQGTLVTVSS
VL: EIVLTQSPATLSLSPGERATLSCRASQSVSRYLAWYQQKPGQAPRLLIYDASNRATGIPARFSGSGSGTDSTLTISSLEPEDFAVYYCQQRSNWPRTFGQGTKVEIK

Tests used:
[1] = target: Recombinant human BAFF 60mer (Boehringer Ingelheim Pharmaceuticals, Inc.) (human, UniProt Q9Y275 134-285, limits assumed); assay: cell-based or functional assay
[2] = target: Recombinant cynomolgus BAFF trimer (Boehringer Ingelheim Pharmaceuticals, Inc.) (cynomolgus, UniProt A0A2K5V2X4 134-285); assay: cell-based or functional assay
[3] = target: T1, Recombinant human IL-23; assay: BLI (Octet RED96, streptavidin tips), compound incubated 48 h at 37 C in whole blood vs kinetic buffer
Protocol: (§1) A whole blood interference assay was developed on an Octet RED96 to detect the effects of non-specific binding or off-target binding for compounds in the presence of whole blood (WB). The compound solutions in whole blood and 1× kinetic running buffer (1×kb) were incubated at a temperature of 37° C. for 48 hours. Kinetic measurements for the incubated compound samples were performed with an Octet RED96 equipped with streptavidin (SA) biosensor tips (ForteBio, Menlo Park, Calif.) at 27° C. The ratio of the on-rates/binding signals in buffer and whole blood were reported. A ratio <2 was considered to show no interference.

[4] = target: T3, human BAFF (human, UniProt Q9Y275 134-285, limits assumed); assay: as above
T3 construct: also called hu BAFF; hBAFF
Protocol: as §1

[5] = target: membrane-bound human BAFF on fixed CHO-K1 cells (human, UniProt Q9Y275 1-285); assay: cell-based or functional assay
[6] = target: T2, Linked human IL-23 (Boehringer …); assay: SPR (ProteOn XPR36), compound captured on goat anti-human IgG Fc, antigen injected
Protocol: (§2) SPR experiments were performed on a ProteOn XPR36 instrument (Bio Rad). A GLM chip was preconditioned with sequential injections of 60 sec of 0.5% SDS, 50 mM NaOH, and 100 mM HCl at a flow rate of 30 μl/min both vertical and horizontal directions.
(§3) The preconditioned GLM chip was then activated by an injection of EDC (76.7 mg/ml) and sulfo-NHS (21.7 mg/ml) mixture with ratio of 1:1 in 6 horizontal channels. Goat-anti-human IgG (GAHA) Fc gamma (Invitrogen) at a concentration of 30 μg/ml in 10 mM, pH 5.0 sodium acetate buffer was immobilized to 8,000 resonance units on the activated GLM chip in 6 horizontal channels. The chip was finally deactivated with 1 M ethanolamine HCl in 6 horizontal channels. The prepared GAHA chip was rotated to vertical direction to capture test compounds, over 5 vertical channels and the last channel was used as a column reference. The captured chip was then rotated again to the horizontal direction for binding. […] The dissociation was allowed for 2 hour. The GAHA surface was regenerated using short pulse injection (18 seconds) of 0.85% phosphoric acid (Bio Rad) at a flow rate of 100 μl/min both horizontal and vertical directions after 10 min association and 2 hr dissociation. The regenerated GAHA was ready for another binding cycle.

[7] = target: T3, human BAFF; assay: as above
Protocol: as §2, §3

[8] = target: T4, cynomolgus IL-23 (cynomolgus, UniProt H6WS56 20-189); assay: as above
Protocol: as §2, §3

[9] = target: T5, cynomolgus BAFF (cynomolgus, UniProt A0A2K5V2X4 134-285); assay: as above
T5 construct: construct not described
Protocol: as §2, §3

[10] = target: T1, Recombinant human IL-23; assay: cell-based or functional assay
[11] = target: T6, Recombinant human BAFF trimer (Boehringer Ingelheim Pharmaceuticals, Inc.) (human, UniProt Q9Y275 134-285, limits assumed); assay: cell-based or functional assay
[12] = target: T6, Recombinant human BAFF trimer …; assay: cell-based or functional assay; remark: listed apart in the source
[13] = target: T1, Recombinant human IL-23; assay: cell-based or functional assay; remark: listed apart in the source
[14] = target: T4, cynomolgus IL-23; assay: cell-based or functional assay
[15] = target: T3, human BAFF; assay: cell-based or functional assay

Binder | IC50, NFkB luciferase reporter, human BAFFR-CHO cells [1] | IC90, NFkB luciferase reporter, human BAFFR-CHO cells [1] | IC50 Geomean, NFkB luciferase reporter, human BAFFR-CHO cells [2] | IC90 Geomean, NFkB luciferase reporter, human BAFFR-CHO cells [2] | Ratio of binding signal in WB/kinetic buffer [3] | Ratio of binding signal in WB/kinetic buffer [4] | IC50, NFkB luciferase reporter, human BAFFR-CHO cells stimulated with fixed human BAFF CHO-K1 cells [5] | IC90, NFkB luciferase reporter, human BAFFR-CHO cells stimulated with fixed human BAFF CHO-K1 cells [5] | Kd [6] | Kd [7] | Kd [8] | Kd [9] | IC50, STAT3-luciferase reporter in DB lymphoblast B cells [10] | IC90, STAT3-luciferase reporter in DB lymphoblast B cells [10] | IC50, NFkB luciferase reporter, human BAFFR-CHO cells [11] | IC90, NFkB luciferase reporter, human BAFFR-CHO cells [11] | IC50 Geomean, NFkB luciferase reporter, human TACI-CHO cells [12] | IC90 Geomean, NFkB luciferase reporter, human TACI-CHO cells [12] | IC50, IL-23-induced mouse IL-17 release from mouse splenocytes [13] | IC90, IL-23-induced mouse IL-17 release from mouse splenocytes [13] | other results
B1 | 0.006 nM | 0.017 nM | 0.132 nM | 0.295 nM | 1.5 | 1.2 | 0.125 nM | 1.14 nM | < 0.015 nM | < 0.015 nM | < 0.015 nM | < 0.015 nM | 0.161 nM | 1.1 nM | 0.039 nM | 0.256 nM | 0.159 nM | 0.51 nM | 0.202 nM | 1.36 nM | IC50, IL-23-induced mouse IL-17 release from mouse splenocytes [14]: 0.2 nM; IC90, IL-23-induced mouse IL-17 release from mouse splenocytes [14]: 1.48 nM; IC50, 3H-thymidine incorporation, primary human B cells stimulated with anti-IgM and hBAFF [15]: 0.0337 nM
B2 | 0.004 nM | 0.012 nM | 0.118 nM | 0.248 nM | 1.7 | 1.3 | 0.104 nM | 0.938 nM | < 0.015 nM | < 0.015 nM | < 0.015 nM | < 0.015 nM | 0.128 nM | 3.09 nM | 0.034 nM | 0.172 nM | 0.163 nM | 0.436 nM | 0.105 nM | 1.7 nM | IC50, IL-23-induced mouse IL-17 release from mouse splenocytes [14]: 0.097 nM; IC90, IL-23-induced mouse IL-17 release from mouse splenocytes [14]: 1.55 nM
B3 | 0.015 nM | 0.038 nM | 0.257 nM | 0.588 nM |  |  | 0.25 nM | 2.92 nM |  |  |  |  |  |  | 0.07 nM | 0.417 nM | 0.241 nM | 0.618 nM |  |  | IC50, 3H-thymidine incorporation, primary human B cells stimulated with anti-IgM and hBAFF [15]: 0.0873 nM
